Data on five variants can be found in IntAct's records for PubMed 28065597.

To fix the notation:
B1: Receptor-type tyrosine-protein phosphatase R (Homo sapiens), Q15256 (parent)
chain: MRRAVCFPALCLLLNLHAAGCFSGNNDHFLAINQKKSGKPVFIYKHSQDIEKSLDIAPQKIYRHSYHSSSEAQVSKRHQIVNSAFPRPAYDPSLNLLAMDGQDLEVENLPIPAANVIVVTLQMDVNKLNITLLRIFRQGVAAALGLLPQQVHINRLIGKKNSIELFVSPINRKTGISDALPSEEVLRSLNINVLHQSLSQFGITEVSPEKNVLQGQHEADKIWSKEGFYAVVIFLSIFVIIVTCLMILYRLKERFQLSLRQDKEKNQEIHLSPITLQPALSEAKTVHSMVQPEQAPKVLNVVVDPQGRGAPEIKATTATSVCPSPFKMKPIGLQERRGSNVSLTLDMSSLGNIEPFVSIPTPREKVAMEYLQSASRILTRSQLRDVVASSHLLQSEFMEIPMNFVDPKEIDIPRHGTKNRYKTILPNPLSRVCLRPKNVTDSLSTYINANYIRGYSGKEKAFIATQGPMINTVDDFWQMVWQEDSPVIVMITKLKEKNEKCVLYWPEKRGIYGKVEVLVISVNECDNYTIRNLVLKQGSHTQHVKHYWYTSWPDHKTPDSAQPLLQLMLDVEEDRLASQGRGPVVVHCSAGIGRTGCFIATSIGCQQLKEEGVVDALSIVCQLRMDRGGMVQTSEQYEFVHHALCLYESRLSAETVQ
B2: Receptor tyrosine-protein kinase erbB-4 (Homo sapiens), Q15303 (parent)
chain: MKPATGLWVWVSLLVAAGTVQPSDSQSVCAGTENKLSSLSDLEQQYRALRKYYENCEVVMGNLEITSIEHNRDLSFLRSVREVTGYVLVALNQFRYLPLENLRIIRGTKLYEDRYALAIFLNYRKDGNFGLQELGLKNLTEILNGGVYVDQNKFLCYADTIHWQDIVRNPWPSNLTLVSTNGSSGCGRCHKSCTGRCWGPTENHCQTLTRTVCAEQCDGRCYGPYVSDCCHRECAGGCSGPKDTDCFACMNFNDSGACVTQCPQTFVYNPTTFQLEHNFNAKYTYGAFCVKKCPHNFVVDSSSCVRACPSSKMEVEENGIKMCKPCTDICPKACDGIGTGSLMSAQTVDSSNIDKFINCTKINGNLIFLVTGIHGDPYNAIEAIDPEKLNVFRTVREITGFLNIQSWPPNMTDFSVFSNLVTIGGRVLYSGLSLLILKQQGITSLQFQSLKEISAGNIYITDNSNLCYYHTINWTTLFSTINQRIVIRDNRKAENCTAEGMVCNHLCSSDGCWGPGPDQCLSCRRFSRGRICIESCNLYDGEFREFENGSICVECDPQCEKMEDGLLTCHGPGPDNCTKCSHFKDGPNCVEKCPDGLQGANSFIFKYADPDRECHPCHPNCTQGCNGPTSHDCIYYPWTGHSTLPQHARTPLIAAGVIGGLFILVIVGLTFAVYVRRKSIKKKRALRRFLETELVEPLTPSGTAPNQAQLRILKETELKRVKVLGSGAFGTVYKGIWVPEGETVKIPVAIKILNETTGPKANVEFMDEALIMASMDHPHLVRLLGVCLSPTIQLVTQLMPHGCLLEYVHEHKDNIGSQLLLNWCVQIAKGMMYLEERRLVHRDLAARNVLVKSPNHVKITDFGLARLLEGDEKEYNADGGKMPIKWMALECIHYRKFTHQSDVWSYGVTIWELMTFGGKPYDGIPTREIPDLLEKGERLPQPPICTIDVYMVMVKCWMIDADSRPKFKELAAEFSRMARDPQRYLVIQGDDRMKLPSPNDSKFFQNLLDEEDLEDMMDAEEYLVPQAFNIPPPIYTSRARIDSNRSEIGHSPPPAYTPMSGNQFVYRDGGFAAEQGVSVPYRAPTSTIPEAPVAQGATAEIFDDSCCNGTLRKPVAPHVQEDSSTQRYSADPTVFAPERSPRGELDEEGYMTPMRDKPKQEYLNPVEENPFVSRRKNGDLQALDNPEYHNASNGPPKAEDEYVNEPLYLNTFANTLGKAEYLKNNILSMPEKAKKAFDNPDYWNHSLPPRSTLQHPDYLQEYSTKYFYKQNGRIRPIVAENPEYLSEFSLKPGTVLPPPPYRHRNTVV
partner: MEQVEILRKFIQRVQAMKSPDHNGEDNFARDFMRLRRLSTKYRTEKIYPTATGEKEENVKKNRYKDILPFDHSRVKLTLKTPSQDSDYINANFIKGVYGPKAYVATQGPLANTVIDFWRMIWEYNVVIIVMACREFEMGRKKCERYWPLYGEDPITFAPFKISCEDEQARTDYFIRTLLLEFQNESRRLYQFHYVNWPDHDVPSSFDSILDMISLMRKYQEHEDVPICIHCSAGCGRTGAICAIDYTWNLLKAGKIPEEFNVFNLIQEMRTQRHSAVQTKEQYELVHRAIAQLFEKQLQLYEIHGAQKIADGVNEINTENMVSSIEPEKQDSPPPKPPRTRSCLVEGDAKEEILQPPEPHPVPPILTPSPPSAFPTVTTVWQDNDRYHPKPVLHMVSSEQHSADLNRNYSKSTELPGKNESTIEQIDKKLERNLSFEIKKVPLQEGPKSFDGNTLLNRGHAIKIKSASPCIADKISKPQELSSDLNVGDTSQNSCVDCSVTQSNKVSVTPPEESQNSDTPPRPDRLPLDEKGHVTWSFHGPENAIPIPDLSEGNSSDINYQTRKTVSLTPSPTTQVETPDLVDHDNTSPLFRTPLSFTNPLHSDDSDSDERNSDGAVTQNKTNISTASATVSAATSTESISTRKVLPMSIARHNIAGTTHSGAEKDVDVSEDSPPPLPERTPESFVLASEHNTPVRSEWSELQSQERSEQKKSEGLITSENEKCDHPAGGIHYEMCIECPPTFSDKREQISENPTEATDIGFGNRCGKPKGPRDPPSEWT
B3: Receptor tyrosine-protein kinase erbB-4 (Homo sapiens), Q15303 (parent)
chain: B2 chain
partner: B1 chain

In one experiment the parent is B1. The note with it: with erbb4_human ERBB4, Q15303.
As to C588S, the “effect of a mutation on the interaction” value is “with no effect”.

Consider D554A;C588S, for which the “effect of a mutation on the interaction” value was “with no effect”.

A further experiment covers variants of B1. The note with it: with ret_human RET.
Regarding C588S, the “effect of a mutation on the interaction” value is reported as “with no effect”.

For D554A;C588S, the “effect of a mutation on the interaction” value was “with no effect”.

The variants in another experiment derive from B1. The following applies: with igf1r_human IGF1R.
On to C588S, for which the “effect of a mutation on the interaction” value was “decreasing interaction”.

As to D554A;C588S, the “effect of a mutation on the interaction” value was “decreasing interaction”.

The variants in a further experiment derive from B1. The note with it: with ret_human RET. The source holds these as a separate data set.
As to C588S, the “effect of a mutation on the interaction” value is recorded as “disrupting interaction”.

Consider Y249F, for which the “effect of a mutation on the interaction” value is listed as “increasing interaction”.

Take D554A;C588S: the “effect of a mutation on the interaction” value is recorded as “disrupting interaction”.

The variants in another experiment derive from B1. The following applies: with ron_mouse Mst1r, Q62190.
Sequence of ron_mouse Mst1r, Q62190 (Q62190 whole entry): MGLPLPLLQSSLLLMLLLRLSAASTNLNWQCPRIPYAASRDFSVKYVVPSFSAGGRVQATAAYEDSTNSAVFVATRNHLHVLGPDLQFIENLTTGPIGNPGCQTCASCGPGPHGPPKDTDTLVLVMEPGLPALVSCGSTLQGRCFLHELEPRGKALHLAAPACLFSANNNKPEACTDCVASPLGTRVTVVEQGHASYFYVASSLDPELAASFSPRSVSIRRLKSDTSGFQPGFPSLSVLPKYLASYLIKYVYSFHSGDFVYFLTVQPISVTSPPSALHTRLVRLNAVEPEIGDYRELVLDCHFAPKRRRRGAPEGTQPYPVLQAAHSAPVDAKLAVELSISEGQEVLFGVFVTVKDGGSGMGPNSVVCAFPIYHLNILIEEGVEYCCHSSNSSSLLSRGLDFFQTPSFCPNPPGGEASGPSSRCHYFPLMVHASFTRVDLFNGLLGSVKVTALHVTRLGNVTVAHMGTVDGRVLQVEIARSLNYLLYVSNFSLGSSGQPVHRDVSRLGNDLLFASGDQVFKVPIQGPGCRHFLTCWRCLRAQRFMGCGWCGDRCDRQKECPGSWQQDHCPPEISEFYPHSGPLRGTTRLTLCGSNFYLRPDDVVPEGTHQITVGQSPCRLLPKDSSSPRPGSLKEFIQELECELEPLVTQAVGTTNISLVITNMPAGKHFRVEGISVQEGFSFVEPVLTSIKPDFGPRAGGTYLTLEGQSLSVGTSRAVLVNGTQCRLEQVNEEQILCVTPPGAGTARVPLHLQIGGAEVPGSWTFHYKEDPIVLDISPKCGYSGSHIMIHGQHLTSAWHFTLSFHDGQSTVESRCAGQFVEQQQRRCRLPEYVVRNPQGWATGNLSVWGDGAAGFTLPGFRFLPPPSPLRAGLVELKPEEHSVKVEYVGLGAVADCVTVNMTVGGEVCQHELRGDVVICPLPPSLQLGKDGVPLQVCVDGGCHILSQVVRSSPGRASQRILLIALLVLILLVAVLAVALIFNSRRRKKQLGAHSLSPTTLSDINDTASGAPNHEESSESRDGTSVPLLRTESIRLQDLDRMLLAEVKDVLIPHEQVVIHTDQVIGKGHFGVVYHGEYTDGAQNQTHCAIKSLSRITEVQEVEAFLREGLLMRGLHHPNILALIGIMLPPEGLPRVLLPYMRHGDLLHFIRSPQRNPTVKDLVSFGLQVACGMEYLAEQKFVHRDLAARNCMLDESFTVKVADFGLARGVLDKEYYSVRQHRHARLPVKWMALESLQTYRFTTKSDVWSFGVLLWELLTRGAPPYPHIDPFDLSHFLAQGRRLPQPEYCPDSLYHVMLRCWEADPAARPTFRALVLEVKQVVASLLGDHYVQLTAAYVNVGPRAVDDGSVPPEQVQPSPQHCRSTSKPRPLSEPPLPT
As for C588S, the “effect of a mutation on the interaction” value is recorded as “disrupting interaction”.

For the variant Y249F, the “effect of a mutation on the interaction” value is “increasing interaction”.

In the case of D554A;C588S, the “effect of a mutation on the interaction” value was “disrupting interaction”.

The variants in the next experiment derive from B1. The following applies: with ntrk1_human NTRK1, P04629.
Sequence of ntrk1_human NTRK1, P04629 (P04629 whole entry, looked up): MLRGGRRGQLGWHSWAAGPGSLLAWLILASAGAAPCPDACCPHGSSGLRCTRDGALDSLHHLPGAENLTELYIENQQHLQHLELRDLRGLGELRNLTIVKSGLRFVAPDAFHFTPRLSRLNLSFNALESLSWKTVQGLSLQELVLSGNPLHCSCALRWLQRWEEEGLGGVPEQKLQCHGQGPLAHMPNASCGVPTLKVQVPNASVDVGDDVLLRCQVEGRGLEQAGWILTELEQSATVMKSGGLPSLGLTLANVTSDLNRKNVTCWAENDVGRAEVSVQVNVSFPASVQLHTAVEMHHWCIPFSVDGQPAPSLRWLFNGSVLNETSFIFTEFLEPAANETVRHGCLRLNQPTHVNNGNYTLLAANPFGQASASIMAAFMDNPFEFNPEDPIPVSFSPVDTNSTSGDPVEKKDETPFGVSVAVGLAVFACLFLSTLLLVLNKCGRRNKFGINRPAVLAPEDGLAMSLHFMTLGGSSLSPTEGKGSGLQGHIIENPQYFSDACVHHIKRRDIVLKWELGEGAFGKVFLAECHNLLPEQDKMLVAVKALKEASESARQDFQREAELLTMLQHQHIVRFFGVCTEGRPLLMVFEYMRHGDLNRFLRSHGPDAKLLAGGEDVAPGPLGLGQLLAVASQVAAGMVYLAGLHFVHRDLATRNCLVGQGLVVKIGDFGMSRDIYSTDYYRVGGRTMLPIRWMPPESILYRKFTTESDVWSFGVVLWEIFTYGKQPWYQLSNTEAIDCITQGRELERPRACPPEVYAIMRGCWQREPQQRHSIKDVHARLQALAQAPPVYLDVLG
On to C588S, for which the “effect of a mutation on the interaction” value is “with no effect”.

As to D554A;C588S, the “effect of a mutation on the interaction” value is listed as “with no effect”.

The variants in another experiment derive from B1. The note with it: with tie2_human TEK.
For the variant C588S, the “effect of a mutation on the interaction” value is reported as “decreasing interaction”.

For D554A;C588S, the “effect of a mutation on the interaction” value is reported as “decreasing interaction”.

Variants of B1 are the subject of the next experiment. The following applies: with ron_mouse Mst1r.
Turning to C588S, the “effect of a mutation on the interaction” value is “increasing interaction”.

As to D554A;C588S, the “effect of a mutation on the interaction” value is “increasing interaction”.

A further experiment covers variants of B1. The note with it: with fgfr2_human FGFR2, P21802.
Sequence of fgfr2_human FGFR2, P21802 (P21802 whole entry, looked up): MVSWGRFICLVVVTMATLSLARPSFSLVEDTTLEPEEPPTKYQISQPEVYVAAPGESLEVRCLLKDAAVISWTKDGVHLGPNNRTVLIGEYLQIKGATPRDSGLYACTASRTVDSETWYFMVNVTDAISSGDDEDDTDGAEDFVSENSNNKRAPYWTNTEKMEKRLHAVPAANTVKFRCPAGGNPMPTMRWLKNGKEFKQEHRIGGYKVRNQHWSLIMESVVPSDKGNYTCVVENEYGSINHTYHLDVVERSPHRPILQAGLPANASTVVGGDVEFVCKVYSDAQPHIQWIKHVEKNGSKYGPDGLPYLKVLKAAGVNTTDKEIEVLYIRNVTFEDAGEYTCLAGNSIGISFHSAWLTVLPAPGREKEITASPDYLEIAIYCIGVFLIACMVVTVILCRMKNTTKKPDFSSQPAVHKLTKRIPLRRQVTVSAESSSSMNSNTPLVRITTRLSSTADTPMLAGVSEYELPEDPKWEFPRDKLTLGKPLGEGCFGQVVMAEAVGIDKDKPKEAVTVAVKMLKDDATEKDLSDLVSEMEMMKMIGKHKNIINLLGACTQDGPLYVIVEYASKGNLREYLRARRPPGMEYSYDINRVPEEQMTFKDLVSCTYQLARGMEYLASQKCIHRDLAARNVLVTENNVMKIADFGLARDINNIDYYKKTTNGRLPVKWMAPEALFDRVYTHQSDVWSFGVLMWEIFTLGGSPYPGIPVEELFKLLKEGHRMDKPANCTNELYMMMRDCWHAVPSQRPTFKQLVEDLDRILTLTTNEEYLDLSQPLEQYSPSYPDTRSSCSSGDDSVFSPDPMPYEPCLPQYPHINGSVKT
Turning to C588S, the “effect of a mutation on the interaction” value is “disrupting interaction”.

Turning to D554A;C588S, the “effect of a mutation on the interaction” value is on record as “decreasing interaction”.

Variants of B1 are the subject of another experiment. The note with it: with fgfr4_human FGFR4, P22455.
Sequence of fgfr4_human FGFR4, P22455 (P22455 whole entry, looked up): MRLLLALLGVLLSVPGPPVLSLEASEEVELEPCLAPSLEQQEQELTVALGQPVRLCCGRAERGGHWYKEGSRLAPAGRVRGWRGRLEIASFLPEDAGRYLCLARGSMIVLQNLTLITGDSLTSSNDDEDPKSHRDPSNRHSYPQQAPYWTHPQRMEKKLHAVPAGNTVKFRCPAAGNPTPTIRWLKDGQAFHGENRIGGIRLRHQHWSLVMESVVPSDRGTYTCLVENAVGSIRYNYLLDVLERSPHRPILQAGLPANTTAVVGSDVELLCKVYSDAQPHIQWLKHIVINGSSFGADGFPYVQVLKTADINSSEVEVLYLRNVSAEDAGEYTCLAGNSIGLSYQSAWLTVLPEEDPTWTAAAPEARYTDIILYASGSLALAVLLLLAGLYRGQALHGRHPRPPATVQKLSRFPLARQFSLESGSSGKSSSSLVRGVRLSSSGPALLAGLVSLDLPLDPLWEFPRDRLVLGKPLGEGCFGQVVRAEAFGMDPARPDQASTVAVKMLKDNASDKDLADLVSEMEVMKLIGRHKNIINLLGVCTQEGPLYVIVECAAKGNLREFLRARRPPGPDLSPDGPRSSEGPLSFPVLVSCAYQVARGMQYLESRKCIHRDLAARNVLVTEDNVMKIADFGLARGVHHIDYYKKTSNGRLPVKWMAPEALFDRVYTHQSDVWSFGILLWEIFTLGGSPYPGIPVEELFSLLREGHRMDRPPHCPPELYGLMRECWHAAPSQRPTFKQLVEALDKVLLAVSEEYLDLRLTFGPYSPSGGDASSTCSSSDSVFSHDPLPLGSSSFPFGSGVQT
For C588S, the “effect of a mutation on the interaction” value is given as “decreasing interaction”.

For D554A;C588S, the “effect of a mutation on the interaction” value was “decreasing interaction”.

The variants in the next experiment derive from B1. The following applies: with vgfr2_human KDR.
Consider C588S, for which the “effect of a mutation on the interaction” value was “with no effect”.

As to D554A;C588S, the “effect of a mutation on the interaction” value is “with no effect”.

A further experiment covers variants of B1. The note with it: with igf1r_human IGF1R. The source holds these as a separate data set.
C588S: the “effect of a mutation on the interaction” value is “with no effect”.

On to D554A;C588S, for which the “effect of a mutation on the interaction” value is listed as “with no effect”.

In a further experiment the parent is B2. The following applies: with ptn12_human PTPN12, Q05209.
Take D843N: the “effect of a mutation on the interaction” value is “with no effect”.

In the next experiment the parent is B2. The note with it: with ptn12_human PTPN12, Q05209. This is another data set of the same source.
Take D843N: the “effect of a mutation on the interaction” value is “increasing interaction”.

In the next experiment the parent is B3. The following applies: with ptprr_human PTPRR, Q15256.
Regarding D843N, the “effect of a mutation on the interaction” value is “with no effect”.
